Laboratory results published in patent US10065989B2, “Molecular sleds and uses thereof” (The Broad Institute, Inc., priority 2012, dated 2018).
Values joined by “and” are separate entries in the source; they are usually repeats but may differ in a detail not shown here. Equal entries are not always repeated. “Also recorded” adds a separate entry of the source. Where two headings read alike, the source gives them in different places.

Key:
dsDNA [1] = type: binding
lambda DNA = test: Single-molecule DNA sliding assay on flow-stretched DNA (TIRF microscopy); design: species or system bacteriophage lambda; one-dimensional diffusion constant: unit not given here; settings: for One-Dimensional Diffusion Constant (mean D1 ± SEM): lambda DNA, low salt 2-6 mM NaCl
From the text: To determine whether AVP-pVIc complexes slide on DNA, Applicants used single-molecule fluorescence microscopy (FIG. 10C) with flow-stretched DNA, (FIG. 10D,E) (Kabata, H. et al. Visualization of single molecules of RNA polymerase sliding along DNA. Science 262, 1561-3 (1993); Harada, Y. et al. Single-molecule imaging of RNA polymerase-DNA interactions in real time. Biophys. J. 76, 709-715 (1999) and Blainey, P. C., van Oijen, A. M., Banerjee, A., Verdine, G. L. & Xie, X. S. A base-excision DNA-repair protein finds intrahelical lesion bases by fast sliding in contact with DNA. Proc Natl Acad Sci USA 103, 5752-7 (2006)). […] Biochemistry 40, 13237-13245 (2001)), and furthermore to diffuse rapidly over tens of thousands of base pairs before dissociating from the DNA. For example, the molecule whose motion is shown in the raw image data in FIG. 12A traveled more than 20,000 base pairs during a 0.9 sec binding event. Despite the optical resolution limit imposed by diffraction, the centroid position of each signal in each frame was determined with 11 nm spatial precision at 3.5 ms time resolution (Gelles, J., Schnapp, B. J. & Sheetz, M. P. Tracking kinesin-driven movements with nanometer-scale precision. Nature 331, 450-3 (1988) and Thompson, R. E., Larson, D. R. & Webb, W. W. Precise nanometer localization analysis for individual fluorescent probes. Biophys J 82, 2775-83 (2002)), FIG. 12B.
Flow cells containing bacteriophage lambda DNA immobilized at one end were constructed as described previously (Blainey, P. C., van Oijen, A. M., Banerjee, A., Verdine, G. L. & Xie, X. S. A base-excision DNA-repair protein finds intrahelical lesion bases by fast sliding in contact with DNA. Proc Natl Acad Sci USA 103, 5752-7 (2006)). Labeled samples of AVP-pVIc complexes were infused at concentrations of 1-2 nM at rates of 20-50 mL/hour. Flow rates were chosen to drive the longitudinal DNA fluctuation faster than the imaging frame rate (Blainey, P. C., van Oijen, A. M., Banerjee, A., Verdine, G. L. & Xie, X. S. A base-excision DNA-repair protein finds intrahelical lesion bases by fast sliding in contact with DNA. Proc Natl Acad Sci USA 103, 5752-7 (2006)). The assay buffers consisted of 10 mM MES (pH 6.5), 2-25 mM NaCl, 50 μM EDTA, 20 mM ethanol, 5 percent glycerol, and, where indicated in the text, reducing agent (DTT and mercaptoethanol gave equivalent results). “Low salt” measurements were conducted with 2-6 mM NaCl; “high salt” measurements were conducted with 20-25 mM NaCl.
Due to the speed and duration of sliding by AVP-pVIc complexes, these events were readily identifiable manually. All AVP-pVIc complex DNA-binding events noted were included in the analyses. Once events had been identified, signals were tracked using Gaussian centroid determination in the Matlab environment. Molecular trajectories were analyzed in Matlab by methods similar to those previously published (Blainey, P. C., van Oijen, A. M., Banerjee, A., Verdine, G. L. & Xie, X. S. A base-excision DNA-repair protein finds intrahelical lesion bases by fast sliding in contact with DNA. Proc Natl Acad Sci USA 103, 5752-7 (2006)).
A question is does pVIc by itself slide on DNA. To address this possibility, Applicants performed a sliding assay (Blainey et al., 2012, Activated Adenovirus Proteinase Slides Along Viral DNA Via One-Dimensional Diffusion to Locate and Process its Substrate and Blainey et al., 2009, Nonspecifically bound proteins spin while diffusing along DNA. Nat Struct Mol Biol 16, 1224-1229 and Blainey et al., 2006, A base-excision DNA-repair protein finds intrahelical lesion bases by fast sliding in contact with DNA. Proc Natl Acad Sci USA 103, 5752-5757) using pVIc labeled with Cy3B at Cys10′. […] The sliding assay, based upon total internal reflection fluorescence microscopy, used phage λ DNA molecules (48,502 base pairs) attached at one end to a glass cover slip surface by a biotin-streptavidin linkage. The area of the cover slip with DNA was placed within a flow cell. […]

AVP [2] = target: T1, AVP (Human adenovirus C serotype 2, UniProt P03252); settings: cited from earlier work
T1 sequence (P03252 whole entry): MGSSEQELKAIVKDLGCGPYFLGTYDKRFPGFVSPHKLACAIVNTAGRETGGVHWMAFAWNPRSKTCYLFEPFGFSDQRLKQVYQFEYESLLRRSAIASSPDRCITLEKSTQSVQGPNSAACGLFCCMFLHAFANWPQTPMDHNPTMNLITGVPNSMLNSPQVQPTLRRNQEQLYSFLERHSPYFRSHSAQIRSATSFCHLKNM

[3] = test system: virion precursor proteins in heat-disrupted Ad2 ts-1 virions; test: Processing of virion precursor proteins in heat-disrupted ts-1 virus; type: biochemical
dsDNA [4] = settings: 12-mer dsDNA, pH 7; McGrath et al. 2001; read-out: KD(app.); cited from earlier work
Ad2 hexon [5] = target: T2, Ad2 hexon (human adenovirus serotype 2 (Ad2), UniProt P03277 2-968); test: summary sentence of Example 1; fluorescence titration of Cy3B-pVI with hexon
T2 construct: also called hexon trimer; major capsid protein hexon
T2 sequence (P03277 2-968 limits assumed): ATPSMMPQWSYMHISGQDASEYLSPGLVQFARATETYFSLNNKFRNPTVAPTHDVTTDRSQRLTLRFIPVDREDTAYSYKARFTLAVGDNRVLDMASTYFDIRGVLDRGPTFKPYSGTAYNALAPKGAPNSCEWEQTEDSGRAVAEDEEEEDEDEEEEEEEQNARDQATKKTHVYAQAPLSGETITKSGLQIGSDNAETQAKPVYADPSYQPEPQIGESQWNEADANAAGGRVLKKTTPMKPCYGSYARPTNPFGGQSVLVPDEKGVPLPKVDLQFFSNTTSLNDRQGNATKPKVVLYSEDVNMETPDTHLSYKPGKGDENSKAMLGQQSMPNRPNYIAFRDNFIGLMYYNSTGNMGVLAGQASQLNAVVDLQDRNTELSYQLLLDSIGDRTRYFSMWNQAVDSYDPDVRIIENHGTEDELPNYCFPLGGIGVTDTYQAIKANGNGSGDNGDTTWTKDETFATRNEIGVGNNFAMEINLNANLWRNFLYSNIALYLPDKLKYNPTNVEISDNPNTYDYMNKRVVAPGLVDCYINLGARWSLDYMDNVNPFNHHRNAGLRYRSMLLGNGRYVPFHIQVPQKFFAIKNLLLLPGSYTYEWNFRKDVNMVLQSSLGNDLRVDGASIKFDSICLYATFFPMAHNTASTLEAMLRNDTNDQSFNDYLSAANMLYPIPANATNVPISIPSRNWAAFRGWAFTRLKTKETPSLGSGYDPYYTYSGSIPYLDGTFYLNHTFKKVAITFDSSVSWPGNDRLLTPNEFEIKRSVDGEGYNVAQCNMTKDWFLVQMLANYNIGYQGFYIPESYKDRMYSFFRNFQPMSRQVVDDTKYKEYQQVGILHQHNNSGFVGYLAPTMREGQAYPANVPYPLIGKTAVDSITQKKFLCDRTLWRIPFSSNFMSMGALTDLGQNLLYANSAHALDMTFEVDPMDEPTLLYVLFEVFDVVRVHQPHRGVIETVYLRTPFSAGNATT

Ad2 hexon [6] = target: T2, Ad2 hexon; test: fluorescence quenching; 1 nM Cy3B-pVI titrated with hexon (monomer concentrations), 20 mM Hepes pH 7, 150 mM NaCl
[7] = Detergent requirement for solubility, dynamic light scattering; type: physicochemical
From the text: Briefly, the gene for pVI and an expressible gene of VI were synthesized by PCR and inserted into expression vectors. The vectors for pVI and VI were used to transform Escherichia coli BL21 (DE3) Codon Plus cells. Recombinant proteins were expressed in autoinduction media (Studier, F. W. (2005) Protein Expr. Purif. 41, 207-234). Purification of pVI and VI was accomplished by cation-exchange and size exclusion chromatography. The proteins were about 99% pure. pVI and VI required a detergent to keep them in solution. Below a concentration of DDM of 0.0125%, the proteins were insoluble, as determined by dynamic light scattering.

Ad2 hexon [8] = target: T2, Ad2 hexon; test: fluorescence anisotropy under tight binding conditions; 20 nM Cy3B-pVI titrated with hexon
AVP [9] = target: T1, AVP
Description: Assays contained 3.38 μM pVI, 6.54 μM AVP and either 3.38 μM 36 bp dsDNA or no DNA. After the indicated time intervals, aliquots were removed and assayed for enzymatic activity. 100% activity is the enzyme activity of 3.38 μM AVP-pVIc complexes bound to DNA. (∘) plus DNA, (∇) minus DNA. […] After 30 min. at 21° C., the amount of AVP-pVIc formed was assayed. (C) SDS-PAGE (15% polyacrylamide gel) analysis of the reactions in (B) except that the concentrations of pVI, AVP and DNA were 26-fold higher. The DNA concentration in the reactions fractionated on the gel increased from left to right. In B and C, parentheses including the same number indicates the ratio of protein to DNA in B and C is the same.
Another question is if DNA is required for the activation of AVP by pVI. Applicants repeated the experiment but in the presence of dsDNA.
To see if both enzyme (AVP) and substrate (pVI) must be on the same molecule of DNA for activation to occur or whether they can interact when bound to different DNA molecules, Applicants incubated increasing concentrations of DNA with a mixture of AVP and pVI, each at a concentration such that both should bind to DNA at any DNA concentration. And then Applicants assayed for enzyme activation (FIG. 6B).

Molecule: SIVHRKCF [8-Actin-C, 8-amino acid peptide from the C-terminus of β-actin]
- Kd (dsDNA [1]; 12-mer dsDNA, pH 7, Cy3B label on peptide, read-out: Kd(app.)): 5 ± 0.78 nM
- One-Dimensional Diffusion Constant (mean D1 ± SEM) (lambda DNA): 5.45 (bp)^2/s × 10^−6

Molecule: SFRRCGLRQVK [Random peptide, reference compound]
- Kd (dsDNA [1]; 12-mer dsDNA, pH 8, peptide labeled at Cys5′ with Cy3B, read-out: Kd(app.)): 646 ± 75 nM
- cofactor activity in stimulating AVP (AVP [2]; up to a concentration of 60 M, Brown and Mangel 2004): did not act like a cofactor in stimulating AVP
- sliding along DNA (in words) (lambda DNA): No Diffusion
- sliding along DNA (in words) (lambda DNA; listed as SFRRCGLRQVK): No one-dimensional diffusion of the peptide was observed; also recorded: does not slide along the DNA

Molecule: AVP: adenovirus proteinase, a 23 kDa cysteine proteinase
- processing of precursor proteins after DNase treatment ([3]; heat disrupted ts-1 virus incubated with DNase, 2 or 24 hours): no processing of pVI or the other precursor proteins was observed
- time within which all pVI was processed ([3]; heat disrupted ts-1 virus, DNA present): ≤ 24 hours
- Kd (dsDNA [4]): 63 nM and 63.1 nM
- increase of relative kcat/Km of AVP (AVP [2]; in the presence of DNA): 110 fold
- increase of relative kcat/Km of AVP (AVP [2]; in the presence of pVIc): 1130 fold
- sliding along DNA (in words) (lambda DNA): does not slide effectively along DNA

Molecule: SGPSIVHRKCF [11-Actin-C, last 11 amino acids of β-actin]
- One-Dimensional Diffusion Constant (mean D1 ± SEM) (lambda DNA): 6.40 (bp)^2/s × 10^−6

B1: precursor to adenovirus protein VI, pVI (other)
chain: MEDINFASLAPRHGSRPFMGNWQDIGTSNMSGGAFSWGSLWSGIKNFGSTIKNYGSKAWNSSTGQMLRDKLKEQNFQQKVVDGLASGISGVVDLANQAVQNKINSKLDPRPPVEEPPPAVETVSPEGRGEKRPRPDREETLVTQIDEPPSYEEALKQGLPTTRPIAPMATGVLGQHTPVTLDLPPPADTQQKPVLPGPSAVVVTRPSRASLRRAASGPRSMRPVASGNWQSTLNSIVGLGVQSLKRRRCF
notes: range 1-250; also called Cy3B-pVI; adenovirus precursor protein pVI
- Kd (Ad2 hexon [5]): 1.9 nM and 1.85 nM
- Kd (dsDNA [1]; 12-mer dsDNA, 0.02 M NaCl, read-out: KD): 55 nM
- Kd (dsDNA [1]; 12-mer dsDNA, 0.03 M NaCl, read-out: KD): 155 nM
- Kd (dsDNA [1]; 12-mer dsDNA, 0.04 M NaCl, read-out: KD): 328 nM
- Kd (dsDNA [1]; 12-mer dsDNA, 0.05 M NaCl, read-out: KD): 449 nM
- Kd (dsDNA [1]; 12-mer dsDNA, 0.06 M NaCl, read-out: KD): 1040 nM
- Kd (dsDNA [1]; 33-mer dsDNA, 1 mM MgCl2, buffer B pH 8, 21° C., read-out: KD(app.)): 35 nM
- Kd (Ad2 hexon [6]): 1.8 nM
- minimum DDM concentration required to remain in solution [7]: 0.0125%
- stoichiometry of binding of pVI to hexon monomer (Ad2 hexon [8]): 1 pVI per hexon monomer
- rate of AVP activation relative to rate at peak DNA concentration (50 nM) (AVP [9]; 77 nM pVI, 130 nM AVP, 320 nM 36-mer dsDNA): 12%
- pVI cleaved and used to form active AVP-pVIc complexes (AVP [9]; 3.38 μM pVI, 6.54 μM AVP, 3.38 μM 36 bp dsDNA, by one hour): 100%
- enzymatic activity after mixing AVP with pVI (AVP [9]; no DNA): no enzymatic activity was detected
- time by which all pVI had disappeared (SDS-PAGE) (AVP [9]; with AVP and 36 bp dsDNA): ≤ 10 minutes
- one-dimensional diffusion constant (lambda DNA): 1.45×10^6
- one-dimensional diffusion constant (mean) (lambda DNA; flow-stretched lambda DNA, low salt): 1.45±0.13×10^6 (bp)^2/s and 1.45×10^6 (bp)^2/s
